One block for each substance: values may come before it.
Assays:
[1] = target: microtubules polymerised from porcine brain tubulin (porcine) (UniProt P02550); assay: single-molecule TIRF microscopy on immobilised microtubules
[2] = target: microtubules polymerised from porcine brain tubulin (porcine) (UniProt P02550); assay: TIRF microscopy of fluorescent protein on immobilised microtubules
[3] = target: microtubules polymerised from porcine brain tubulin (porcine) (UniProt P02550); assay: FRAP of fluorescent protein on immobilised microtubules

Chain of UniProt P02550 (P02550 whole entry): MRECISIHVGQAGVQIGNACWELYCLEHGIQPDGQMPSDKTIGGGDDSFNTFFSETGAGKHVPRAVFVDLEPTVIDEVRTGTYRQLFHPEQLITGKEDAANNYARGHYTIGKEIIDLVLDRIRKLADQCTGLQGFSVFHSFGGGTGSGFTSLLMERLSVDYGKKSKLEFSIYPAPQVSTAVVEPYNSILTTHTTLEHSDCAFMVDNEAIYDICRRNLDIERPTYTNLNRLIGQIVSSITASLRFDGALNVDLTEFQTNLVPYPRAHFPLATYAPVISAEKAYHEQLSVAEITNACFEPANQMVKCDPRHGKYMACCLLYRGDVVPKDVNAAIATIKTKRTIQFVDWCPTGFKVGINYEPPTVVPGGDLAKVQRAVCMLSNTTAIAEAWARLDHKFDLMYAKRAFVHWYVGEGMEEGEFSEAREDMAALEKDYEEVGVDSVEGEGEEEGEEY

fold dwell time of single molecules against MAP2c [1]: 2 fold
Substance: TMR-MAP4 (full-length human MAP4, isoform 1) (from UniProt P27816 1-1152) (natural protein)

landing rate (with 600 nM tau-mCherry) [2]: 0.23 μm^-1s^-1
Substance: kinesin-1-GFP (from UniProt P33176 1-963) (natural protein)

fold increase of dwell time inside GFP-MAP2c envelopes against outside [1]: 3 fold
Substance: TMR-MAP2c (natural protein)

fold turnover (FRAP) outside against inside envelopes [3]: 4 fold
Substance: GFP-MAP2c (natural protein)
